Data on 125 sequences can be found in the supplement of paper PMC9112550, “Optimization of the antimicrobial peptide Bac7 by deep mutational scanning” (BMC Biology, 2022).

For this data set, the system named is Escherichia coli TOP10. The data set can be described thus: shrunken log2 fold change of peptide-encoding DNA abundance (4.5 h post-induction vs induction); higher = less antimicrobial activity (less host growth inhibition). Conditions: time post-induction: 4.5 h; library: site-saturation at positions 5, 18, 19, 20.
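Also: peptides expressed intracellularly from a pBAD plasmid library in pooled LB shake-flask culture, induced with 0.3% L-arabinose, DNA abundance read by NGS, three biological replicates, DESeq2 with apeglm shrinkage.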

As to RRIRMRPPRLPRPRPRPIHKPRP, the “shrunken log2 fold change” value came out at 0.0536.
With RRIRERPPRLPRPRPRPKWCPRP the figure was -0.0117.
In the case of RRIRSRPPRLPRPRPRPDQDPRP, the “shrunken log2 fold change” value is 0.142.
As for RRIRFRPPRLPRPRPRPYMFPRP, the figure is -1.11; as for RRIRFRPPRLPRPRPRPPLYPRP, -0.0579.
As for RRIRSRPPRLPRPRPRPTMKPRP, the figure is -0.128; as for RRIRRRPPRLPRPRPRPTFWPRP, 0.436.
With RRIRPRPPRLPRPRPRPSSCPRP the figure was 0.0133; with RRIRCRPPRLPRPRPRPCWNPRP, -0.49; with RRIRARPPRLPRPRPRPDKCPRP, -0.0816.
RRIRHRPPRLPRPRPRPTANPRP: the “shrunken log2 fold change” value was 0.0557.
With RRIRVRPPRLPRPRPRPVYTPRP the figure was -0.324; with RRIRPRPPRLPRPRPRPFVAPRP, -0.186; with RRIRVRPPRLPRPRPRPRCCPRP, 0.201.
With RRIRSRPPRLPRPRPRPKRTPRP the figure was 0.312; with RRIRMRPPRLPRPRPRPDGYPRP, 0.818.
In the case of RRIRCRPPRLPRPRPRPMANPRP, the “shrunken log2 fold change” value was 0.0226.
As for RRIRVRPPRLPRPRPRPSYWPRP, the figure is -0.341.
With RRIRLRPPRLPRPRPRPGEMPRP the figure was 0.0594.
As for RRIRCRPPRLPRPRPRPGARPRP, the figure is 0.394; as for RRIRARPPRLPRPRPRPWSNPRP, 0.0711; as for RRIRFRPPRLPRPRPRPSQWPRP, -0.171.
As to RRIRIRPPRLPRPRPRPMVAPRP, the “shrunken log2 fold change” value was -0.14.
RRIRFRPPRLPRPRPRPQEHPRP: the “shrunken log2 fold change” value is -0.115.
As to RRIRYRPPRLPRPRPRPLDMPRP, the “shrunken log2 fold change” value is -0.151.
As for RRIRYRPPRLPRPRPRPHPWPRP, the figure is -0.542; as for RRIRSRPPRLPRPRPRPRKIPRP, 0.12.
For RRIRVRPPRLPRPRPRPKYKPRP, the “shrunken log2 fold change” value was -0.574.
Take RRIRDRPPRLPRPRPRPPPEPRP: the “shrunken log2 fold change” value was 0.48.
In the case of RRIRDRPPRLPRPRPRPGEIPRP, the “shrunken log2 fold change” value was determined as 0.501.
With RRIRNRPPRLPRPRPRPDYYPRP the figure was -1.4; with RRIRVRPPRLPRPRPRPHTMPRP, -0.252.
As for RRIRSRPPRLPRPRPRPFLDPRP, the figure is -0.149; as for RRIRCRPPRLPRPRPRPPTYPRP, -0.133.
With RRIRDRPPRLPRPRPRPKKIPRP the figure was 0.0726; with RRIRWRPPRLPRPRPRPQVWPRP, 0.576.
As for RRIRQRPPRLPRPRPRPLQLPRP, the “shrunken log2 fold change” value was -0.126.
As for RRIRFRPPRLPRPRPRPMKMPRP, the figure is -0.0224.
As for RRIRTRPPRLPRPRPRPRPSPRP, the figure is 0.703.
As for RRIRFRPPRLPRPRPRPCHGPRP, the figure is -1.45; as for RRIRKRPPRLPRPRPRPAFTPRP, 0.021.
As to RRIRTRPPRLPRPRPRPFWAPRP, the “shrunken log2 fold change” value worked out at 0.346.
With RRIRDRPPRLPRPRPRPLRRPRP the figure was 0.463; with RRIRERPPRLPRPRPRPWFGPRP, 0.0197.
For RRIRRRPPRLPRPRPRPHDDPRP, the “shrunken log2 fold change” value was found to be 0.341.
With RRIRLRPPRLPRPRPRPMRSPRP the figure was 0.0143; with RRIRWRPPRLPRPRPRPPPMPRP, 0.72; with RRIRKRPPRLPRPRPRPPTFPRP, 0.149.
With RRIRWRPPRLPRPRPRPFVKPRP the figure was -0.753.
As for RRIRRRPPRLPRPRPRPMPAPRP, the figure is 0.203; as for RRIRQRPPRLPRPRPRPKQTPRP, -0.0544.
As for RRIRHRPPRLPRPRPRPFWLPRP, the “shrunken log2 fold change” value was determined as 0.137.
As for RRIRDRPPRLPRPRPRPLSQPRP, the “shrunken log2 fold change” value came out at 0.483.
Regarding RRIRKRPPRLPRPRPRPYQCPRP, the “shrunken log2 fold change” value was -0.0062.
As for RRIRCRPPRLPRPRPRPRVIPRP, the figure is 0.0854; as for RRIRWRPPRLPRPRPRPCSHPRP, -0.264.
With RRIRTRPPRLPRPRPRPQMGPRP the figure was -0.0284; with RRIRKRPPRLPRPRPRPCIIPRP, -0.108; with RRIRQRPPRLPRPRPRPQPEPRP, -0.0839.
With RRIRIRPPRLPRPRPRPYPQPRP the figure was -0.974; with RRIRRRPPRLPRPRPRPMPQPRP, 0.376.
Take RRIRHRPPRLPRPRPRPCVPPRP: the “shrunken log2 fold change” value was -0.00981.
As for RRIRRRPPRLPRPRPRPAVYPRP, the figure is 0.0519; as for RRIRYRPPRLPRPRPRPMYHPRP, -0.707.
With RRIRRRPPRLPRPRPRPPKWPRP the figure was 0.628; with RRIRLRPPRLPRPRPRPKELPRP, 0.0165.
For RRIRGRPPRLPRPRPRPCMKPRP, the “shrunken log2 fold change” value turned out to be 0.507.
With RRIRCRPPRLPRPRPRPMNMPRP the figure was -0.445.
As for RRIRYRPPRLPRPRPRPRTYPRP, the figure is -0.71; as for RRIRMRPPRLPRPRPRPMYHPRP, -0.0178.
As for RRIRRRPPRLPRPRPRPSTEPRP, the figure is 0.664; as for RRIRGRPPRLPRPRPRPCNSPRP, -0.0377.
With RRIRSRPPRLPRPRPRPWTKPRP, the “shrunken log2 fold change” value was -0.137.
For the sequence RRIRCRPPRLPRPRPRPHNMPRP, the “shrunken log2 fold change” value was -0.82.
As for RRIRNRPPRLPRPRPRPDLIPRP, the “shrunken log2 fold change” value was -0.172.
With RRIRFRPPRLPRPRPRPFDKPRP the figure was 0.00679; with RRIRFRPPRLPRPRPRPVAKPRP, -0.0163; with RRIRLRPPRLPRPRPRPPYAPRP, 0.296.
As for RRIRLRPPRLPRPRPRPHPFPRP, the figure is 0.0808.
As for RRIRFRPPRLPRPRPRPSPLPRP, the figure is -0.0981.
As for RRIRTRPPRLPRPRPRPTAKPRP, the “shrunken log2 fold change” value was -0.143.
With RRIRVRPPRLPRPRPRPFDCPRP the figure was -0.0718; with RRIRKRPPRLPRPRPRPLFQPRP, 0.181.
With RRIRARPPRLPRPRPRPWWPPRP the figure was 0.292; with RRIRMRPPRLPRPRPRPLGCPRP, 0.182.
RRIRSRPPRLPRPRPRPYLVPRP: the “shrunken log2 fold change” value was -0.123.
With RRIRDRPPRLPRPRPRPHNEPRP, the “shrunken log2 fold change” value is -0.701.
With RRIRCRPPRLPRPRPRPRDYPRP the figure was 0.00558.
In the case of RRIRLRPPRLPRPRPRPFWNPRP, the “shrunken log2 fold change” value is -0.275.
In the case of RRIRLRPPRLPRPRPRPYFCPRP, the “shrunken log2 fold change” value is -0.34.
With RRIRMRPPRLPRPRPRPHLRPRP the figure was 0.0326.
With RRIRPRPPRLPRPRPRPLAIPRP the figure was 0.00474; with RRIRTRPPRLPRPRPRPNENPRP, 1.59; with RRIRCRPPRLPRPRPRPSPFPRP, -0.0566.
With RRIRQRPPRLPRPRPRPYFDPRP the figure was -0.202.
With RRIRGRPPRLPRPRPRPQVEPRP, the “shrunken log2 fold change” value is -0.0312.
As for RRIRMRPPRLPRPRPRPYTGPRP, the figure is 0.042; as for RRIRGRPPRLPRPRPRPKSFPRP, 0.0944; as for RRIRCRPPRLPRPRPRPCALPRP, -0.213.
As for RRIRCRPPRLPRPRPRPWQTPRP, the figure is -0.0433; as for RRIRIRPPRLPRPRPRPYWSPRP, 0.0464.
With RRIRQRPPRLPRPRPRPALHPRP the figure was 1.38; with RRIRVRPPRLPRPRPRPLCYPRP, -0.4.
In the case of RRIRHRPPRLPRPRPRPPINPRP, the “shrunken log2 fold change” value is -0.294.
Regarding RRIRFRPPRLPRPRPRPCHCPRP, the “shrunken log2 fold change” value was -0.0994.
As for RRIRNRPPRLPRPRPRPNCSPRP, the figure is 7.72e-05; as for RRIRIRPPRLPRPRPRPSYWPRP, -0.781; as for RRIRARPPRLPRPRPRPRWYPRP, -0.0331.
Consider RRIRVRPPRLPRPRPRPRPQPRP, for which the “shrunken log2 fold change” value was 0.365.
For the sequence RRIRGRPPRLPRPRPRPVPNPRP, the “shrunken log2 fold change” value is 0.581.
As for RRIRHRPPRLPRPRPRPMSLPRP, the figure is -0.00613; as for RRIRSRPPRLPRPRPRPANTPRP, -0.268; as for RRIRQRPPRLPRPRPRPEAVPRP, 0.217.
With RRIRDRPPRLPRPRPRPTMYPRP the figure was -0.107; with RRIRPRPPRLPRPRPRPWDKPRP, -0.629.
As for RRIRKRPPRLPRPRPRPAPDPRP, the figure is 0.598; as for RRIRHRPPRLPRPRPRPKMMPRP, 0.00455.
With RRIRQRPPRLPRPRPRPFSVPRP, the “shrunken log2 fold change” value is -0.199.
As for RRIRYRPPRLPRPRPRPILDPRP, the figure is -0.253.
With RRIRIRPPRLPRPRPRPVCLPRP the figure was -0.369.
Turning to RRIRYRPPRLPRPRPRPHYSPRP, the “shrunken log2 fold change” value is -0.124.
With RRIRCRPPRLPRPRPRPKYKPRP the figure was -0.834.
With RRIRYRPPRLPRPRPRPGSCPRP the figure was -0.308.
As for RRIRIRPPRLPRPRPRPNSQPRP, the figure is -0.523.
In the case of RRIRVRPPRLPRPRPRPINWPRP, the “shrunken log2 fold change” value is -0.147.
